Results from publication PMC5333627.

Experiments:
CbpE-Jo (S. pneumoniae) = test: confocal fluorescence microscopy of live cells; live pneumococcal cells expressing CbpE-Jo or CbpE-In incubated with exogenous His-GFP-In or PBS, extensive washes; mean maximal GFP intensity of five frames, autofluorescence subtracted
His-Jo (S. pneumoniae) [1] = test: covalent complex formation seen by SDS-PAGE; His-Jo and In co-expressed in E. coli cytoplasm (pETDuet, IPTG 3 h at 37 °C); crude lysate on denaturing SDS-PAGE, Coomassie blue
His-Jo (S. pneumoniae) [2] = test: covalent complex formation seen by SDS-PAGE; 10 μM purified His-Jo and His-In, 50 mM Tris pH 8.0, 200 mM NaCl, 20 °C; 180 min; bands quantified with ImageJ
His-Jo (S. pneumoniae) [3] = test: covalent complex formation seen by SDS-PAGE; Jo and In partners at 25 μM, pH 8, 20 °C, 60 min; proportion of complex normalised to 100%
His-Jo (S. pneumoniae) [4] = test: covalent complex formation seen by SDS-PAGE; Jo and In partners at 25 μM, pH 5, 20 °C, 60 min; proportion of complex normalised to 100%
His-Jo (S. pneumoniae) [5] = test: covalent complex formation seen by SDS-PAGE; Jo and In partners at 25 μM, pH 7, 20 °C, 60 min; proportion of complex normalised to 100%
His-Jo (S. pneumoniae) [6] = test: covalent complex formation seen by SDS-PAGE; Jo and In partners at 25 μM, pH 6, 20 °C, 60 min; proportion of complex normalised to 100%
His-Jo (S. pneumoniae) [7] = test: covalent complex formation seen by SDS-PAGE; 10 μM purified His-Jo and His-In, 50 mM Tris pH 8.0, 200 mM NaCl, 20 °C; 90 min; bands quantified with ImageJ

## His-GFP-In (domain or fragment)
CbpE-Jo (S. pneumoniae)
  fluorescence signal of the cells (arbitrary units (AU)): 550

## In (domain or fragment)
His-Jo (S. pneumoniae) [1]
  stoichiometry N: 1

## His-In (domain or fragment)
His-Jo (S. pneumoniae) [2]
  percent of complex reconstituted: 100%
His-Jo (S. pneumoniae) [3]
  percent of complex reconstituted: 100%
His-Jo (S. pneumoniae) [4]
  percent of complex reconstituted: 18%
His-Jo (S. pneumoniae) [5]
  percent of complex reconstituted: 100%
His-Jo (S. pneumoniae) [6]
  percent of complex reconstituted: 90%
His-Jo (S. pneumoniae) [7]
  percent of complex reconstituted: 60%
